{
  "source": "patent US20250051455A1",
  "about": "(Hoffmann-La Roche, published 2025)",
  "binders": {"B1": {"name": "HLA-G-0090 (antibody, V domains shown)", "VH": "QVQLQQSGPGLLKPSQTLSLTCAISGDSVSSNRAAWNWIRQSPSRGLEWLGRTYYRSKWYNDYAVSVQGRITLIPDTSKNQFSLRLNSVTPEDTAVYYCASVRAVAPFDYWGQGVLVTVSS", "VL": "not shown", "notes": "Human antibody from humanized OmniRat (OMT) rats"}, "B2": {"name": "HLA-G-0031 (antibody, V domains shown)", "VH": "QVKLMQSGAALVKPGTSVKMSCNASGYTFTDYWVSWVKQSHGKRLEWVGEISPNSGASNFDENFKDKATLTVDKSTSTAYMELSRLTSEDSAIYYCTRSSHGSFRWFAYWGQGTLVTVSS", "VL": "AIVLNQSPSSIVASQGEKVTITCRASSSVSSNHLHWYQQKPGAFPKFVIYSTSQRASGIPSRFSGSGSGTSYSFTISRVEAEDVATYYCQQGSSNPYTFGAGTKLELK", "notes": "Rat monoclonal antibody obtained from CD rats"}, "B3": {"name": "HLA-G-0039 (antibody, V domains shown)", "VH": "EVQLLESGGGLVQPGGSLRLSCAASGFTFSSYAMNWVRQAPGKGLEWVSVISGSGVSTYYADSVKGRFTISRDNSRNTLSLQMNSLRAEDTAVYYCAKDGSYNYGYGDYFDYWGQGTLVTVSS", "VL": "not shown", "notes": "as for B1"}, "B4": {"name": "HLA-G-0041 (antibody, V domains shown)", "VH": "EVQLLESGGGLVQPGGSLRLSCAASGFTFSTYGMSWVRQAPGKGLEWVSVISGGGVSTYYADSVKGRFTISRDNSKNTLYLQMNRLRAEDTAVYYCAKDGSYNYGYGDYFDYWGQGTLVTVSS", "VL": "not shown", "notes": "as for B1"}},
  "key": {"[1]": {"molecular_target": "T1, recombinant soluble human HLA-G β2M MHC class I complex, trimer (human)", "T1 construct": "Non-biotinylated; also called HLA-G Trimer; trimeric HLA-G", "assay": "competition ELISA, antibody 44 nM; competitor coated ILT2-Fc", "description": "(§1) The ELISA was set up by coating the Fc tagged ILT2 and ILT4 respectively to Maxisorp microtiter plates. After incubation and washing steps, the respective antibodies were added at a concentration of 100 nM. Soluble His tagged monomeric, dimeric or trimeric HLA-G was added to the wells. After incubation and washing steps, detection of bound receptor was carried out by anti-His-antibody-POD conjugates.\n(§2) The above tables summarize the blocking of interaction between rec. HLA-G proteins (monomer and oligomers) to its receptors ILT2 and ILT4 by the described HLAG antibodies at a concentration of 110 nM (*HLAG-0090 was tested at a concentration of 44 nM) as assessed by ELISA. Shown are the % inhibitions of the HLA-G/receptor interaction (for ILT2 and ILT4). The less pronounced ILT4 inhibition depends on the major β2M dependent interaction of this receptor."}, "[2]": {"molecular_target": "T2, recombinant soluble human HLA-G β2M MHC class I complex, dimer (human)", "T2 construct": "Non-biotinylated; also called HLA-G Dimer; dimeric HLA-G", "assay": "competition ELISA, antibody 44 nM; competitor coated ILT2-Fc", "description": "as §1, §2"}, "[3]": {"molecular_target": "T3, recombinant soluble human HLA-G β2M MHC class I complex, monomer (human)", "T3 construct": "His tagged; biotinylated where coated on streptavidin plates, non-biotinylated in SPR; also called HLA-G-0003; wt HLA-G (monomer)", "assay": "competition ELISA, antibody 44 nM; competitor coated ILT2-Fc", "description": "as §1, §2"}, "[4]": {"molecular_target": "T4, modified human HLA-G β2M MHC class I complex (HLA-G specific amino acids replaced by HLA-A consensus amino … (human))", "T4 construct": "Counter antigen: single-chain fusion of peptide, beta-2 microglobulin and HLA-G in which 14 HLA-G unique surface positions were mutated to an HLA-A consensus; also called degrafted HLA-G; HLA-G-0007", "assay": "ELISA, biotinylated degrafted HLA-G on streptavidin plate (no EC50; Max. OD 0.2)", "description": "(§3) Streptavidin coated plates (Nunc, MicroCoat #11974998001) were coated with 25 μl/well biotinylated human degrafted HLA-G at a concentration of 250 ng/ml and incubated at 4° C. overnight. After washing (3×90 μl/well with PBST-buffer) 25 μl anti-HLA-G samples (1:3 dilution in OSEP buffer) or rat serum (1:600 dilution in OSEP) were added and incubated 1 h at RT. After washing (3×90 μl/well with PBST-buffer) 25 μl/well of a mixture of goat-anti-rat IgG1-POD (Bethyl #A110-106P), goat-anti-rat IgG2a-POD (Bethyl #A110-109P) and goat-anti-rat IgG2b-POD (Bethyl #A110-111P) 1:10000 in OSEP was added and incubated at RT for 1 h on shaker. After washing (6×90 μl/well with PBST-buffer) 25 μl/well TMB substrate (Roche, 11835033001) was added and incubated until OD 2-3. Measurement took place on a Tecan Safire 2 instrument at 370/492 nm."}, "[5]": {"molecular_target": "T1, recombinant soluble human HLA-G β2M MHC …", "assay": "competition ELISA, antibody 44 nM; competitor coated ILT4-Fc", "description": "as §1, §2"}, "[6]": {"molecular_target": "T2, recombinant soluble human HLA-G β2M MHC …", "assay": "competition ELISA, antibody 44 nM; competitor coated ILT4-Fc", "description": "as §1, §2"}, "[7]": {"molecular_target": "T3, recombinant soluble human HLA-G β2M MHC …", "assay": "competition ELISA, antibody 44 nM; competitor coated ILT4-Fc", "description": "as §1, §2"}, "[8]": {"molecular_target": "T4, modified human HLA-G β2M MHC class I …", "assay": "ELISA, biotinylated degrafted HLA-G on streptavidin plate (no EC50; Max. OD 0.13)", "description": "as §3"}, "[9]": {"molecular_target": "T4, modified human HLA-G β2M MHC class I …", "assay": "ELISA, biotinylated degrafted HLA-G on streptavidin plate (no EC50; Max. OD 0.15)", "description": "as §3"}},
  "data": [
    {"binder": "B1", "values": [
      {"measurement": "% inhibition of ILT2 binding", "setting": "[1]", "result": 99, "unit": "%"},
      {"measurement": "% inhibition of ILT2 binding", "setting": "[2]", "result": 100, "unit": "%"},
      {"measurement": "% inhibition of ILT2 binding", "setting": "[3]", "result": 92, "unit": "%"},
      {"measurement": "binding result", "setting": "[4]", "result": "no binding"},
      {"measurement": "% inhibition of ILT4 binding", "setting": "[5]", "result": 47, "unit": "%"},
      {"measurement": "% inhibition of ILT4 binding", "setting": "[6]", "result": 31, "unit": "%"},
      {"measurement": "% inhibition of ILT4 binding", "setting": "[7]", "result": 31, "unit": "%"}
    ]},
    {"binder": "B2", "values": [
      {"measurement": "binding result", "setting": "[8]", "result": "no binding"}
    ]},
    {"binder": "B3", "values": [
      {"measurement": "binding result", "setting": "[8]", "result": "no binding"}
    ]},
    {"binder": "B4", "values": [
      {"measurement": "binding result", "setting": "[9]", "result": "no binding"}
    ]}
  ]
}
